Experimental data published in article doi:10.1101/2021.04.07.438849 (bioRxiv, 2021).

Target: T1, SARS-CoV-2 Wuhan-Hu-1 S-HexaPro-D614G, displayed on HEK293T cells (SARS-CoV-2 Wuhan-Hu-1 with D614G …, UniProt A0A6N0C4S6, D614G)
T1 construct: also called WT (HexaPro-D614G); prefusion stabilized SARS-CoV-2 S D614G
Assay: flow cytometry on cells
Conditions: one partner purified

B1: A7V3 IgG (antibody, V domains shown)
VH: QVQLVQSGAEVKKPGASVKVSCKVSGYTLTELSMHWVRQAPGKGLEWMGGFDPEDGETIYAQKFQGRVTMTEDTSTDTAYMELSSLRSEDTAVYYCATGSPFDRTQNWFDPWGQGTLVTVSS
VL: QSVVTQPPSVSAAPGQKVTISCSGSSSNIGNNYVSWYQQLPGTAPKLLIYDNNKRPSGIPDRFSGSKSGTSATLGITGLQTGDEADYYCGTWDSSLSAVVFGGGTKLTVL
notes: also called mAb A7V3
binding result: binds
